From patent US20240174744A1 (SCIRHOM, published 2024)
Changes are numbered by the printed parent chain.

How the values were obtained:
[1] = biological target: T1, dog iRhom2 full length wild type, C-terminally tagged with 3 consecutive copies of the T7 epitope (dog, UniProt Q00M95 1-827); assay: FACS, MEF-DKO-Dog-iR2-FL-WT-T7 cells
T1 construct: whole, on cells; also called Dog-iR2-FL-WT-T7
T1 sequence: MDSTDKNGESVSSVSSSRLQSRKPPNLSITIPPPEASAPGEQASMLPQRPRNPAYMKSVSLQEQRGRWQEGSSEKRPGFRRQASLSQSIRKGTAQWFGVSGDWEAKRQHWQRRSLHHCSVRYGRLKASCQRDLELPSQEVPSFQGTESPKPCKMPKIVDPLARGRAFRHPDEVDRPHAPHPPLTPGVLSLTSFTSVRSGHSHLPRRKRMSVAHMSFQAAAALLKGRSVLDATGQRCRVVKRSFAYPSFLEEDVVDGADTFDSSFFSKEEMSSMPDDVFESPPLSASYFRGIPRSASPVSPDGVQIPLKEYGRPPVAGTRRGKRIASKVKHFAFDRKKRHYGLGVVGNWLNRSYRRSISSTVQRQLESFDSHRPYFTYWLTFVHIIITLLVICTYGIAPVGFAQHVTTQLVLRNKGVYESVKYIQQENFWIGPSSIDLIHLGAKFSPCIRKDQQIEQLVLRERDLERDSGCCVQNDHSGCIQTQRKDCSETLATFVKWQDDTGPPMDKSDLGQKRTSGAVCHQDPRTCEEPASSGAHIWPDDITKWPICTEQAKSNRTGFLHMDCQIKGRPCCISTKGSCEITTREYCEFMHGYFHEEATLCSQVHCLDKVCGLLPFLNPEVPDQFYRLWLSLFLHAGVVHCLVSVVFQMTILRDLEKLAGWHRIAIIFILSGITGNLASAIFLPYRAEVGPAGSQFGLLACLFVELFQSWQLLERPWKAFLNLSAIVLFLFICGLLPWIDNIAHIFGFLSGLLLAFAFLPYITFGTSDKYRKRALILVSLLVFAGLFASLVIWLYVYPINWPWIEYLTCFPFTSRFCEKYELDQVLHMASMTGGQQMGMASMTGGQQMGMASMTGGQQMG
Procedure: In brief, immortalized MEF-DKO-EV control cells, MEF-DKO-rhesus-iR2-FL-WT-T7 cells, MEF-DKO-cyno-iR2-FL-WT-T7 cells, MEF-DKO-dog-iR2-FL-WT-T7 cells and MEF-DKO-rabbit-iR2-FL-WT-T7 cells, as well as their respective iRhom1 counterparts, were harvested with 10 mM EDTA in PBS, washed and resuspended in FACS buffer (PBS, 3% FBS, 0.05% sodium azide), and seeded in Nunc U-bottom 96-well plates (Thermo Fisher Scientific, USA) at approximately 3×10⁵ cells per well. To pellet cells and remove supernatants, the plates were centrifuged at 1,500 rpm and 4° C. for 3 minutes. For primary staining, cells were resuspended in 100 μl per well of either FACS buffer alone (controls), mouse monoclonal anti-T7 IgG (Merck Millipore, USA) at 3 μg/ml FACS buffer or the antibodies of the present disclosure also at 3 μg/ml FACS buffer and incubated on ice for 1 hour. Afterwards, plates were centrifuged at 1,500 rpm and 4° C. for 3 minutes and washed twice with 200 μl per well of FACS buffer. For secondary staining, cells were spun down and resuspended in 100 μl per well of PE-conjugated goat anti-mouse IgG F(ab′)2 detection fragment (Dianova, Germany) diluted 1:100 in FACS buffer. Protected from light, the cell suspensions were incubated on ice for 1 hour. Plates were then centrifuged at 1,500 rpm and 4° C. for 3 minutes and washed three times with 200 μl per well of FACS buffer. Finally, cells were resuspended in 150 μl per well of FACS buffer and analyzed using a BD Accuri™ C6 Plus flow cytometer (Becton Dickinson, Germany).

[2] = biological target: T2, human iRhom2 (inactive rhomboid protein 2, isoform 1), endogenously expressed on human cells (human, UniProt Q6PJF5 1-856); assay: cell-based or functional assay
T2 sequence: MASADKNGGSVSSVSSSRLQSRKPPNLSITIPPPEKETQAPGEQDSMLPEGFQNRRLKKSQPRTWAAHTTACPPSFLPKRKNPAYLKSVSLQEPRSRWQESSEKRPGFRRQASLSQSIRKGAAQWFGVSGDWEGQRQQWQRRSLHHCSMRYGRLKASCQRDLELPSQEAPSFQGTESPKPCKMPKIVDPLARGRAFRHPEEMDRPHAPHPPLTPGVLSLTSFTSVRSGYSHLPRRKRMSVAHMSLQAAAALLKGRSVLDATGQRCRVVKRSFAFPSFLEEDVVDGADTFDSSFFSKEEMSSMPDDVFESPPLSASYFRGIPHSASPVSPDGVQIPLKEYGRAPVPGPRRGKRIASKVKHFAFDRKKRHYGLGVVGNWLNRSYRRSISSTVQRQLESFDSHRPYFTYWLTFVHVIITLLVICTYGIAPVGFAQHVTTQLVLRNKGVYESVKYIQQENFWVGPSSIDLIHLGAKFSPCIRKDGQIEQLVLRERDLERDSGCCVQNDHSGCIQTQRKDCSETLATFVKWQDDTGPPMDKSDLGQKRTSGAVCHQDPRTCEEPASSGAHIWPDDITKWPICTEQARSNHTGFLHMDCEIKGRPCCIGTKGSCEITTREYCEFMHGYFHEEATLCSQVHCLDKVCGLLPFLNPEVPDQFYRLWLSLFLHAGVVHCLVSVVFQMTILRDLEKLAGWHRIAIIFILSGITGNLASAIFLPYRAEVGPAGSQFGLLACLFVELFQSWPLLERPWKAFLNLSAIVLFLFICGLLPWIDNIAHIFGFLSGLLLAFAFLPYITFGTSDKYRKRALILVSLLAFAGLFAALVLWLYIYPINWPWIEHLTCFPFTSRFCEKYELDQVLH

B1: antibody 43 (antibody, V domains shown)
VH: QVALKESGPGILQPSQTLSLTCSFSGFSLSTFGMGVGWIRQSSGKGLEWLANIWWDDDKYYNPALKSRLTISKDASKNQAFLKIANVDTADTATYYCARIGNYGSNYWYFDVWGTGTTVTVSS
VL: QIVLTQSPAIMSASPGERVTMTCSANSRISYMYWYQQKPGSSPRLLIYDTSNLASGVPVRFSGSGSGTSYSLTISRMEAEDAATYNCQQWSSYPLTFGAGTKLELK
notes: Mouse IgG, kappa light chain; also called clone #43
With B1 the binding result [1] was “binds”, the “inhibition of LPS-induced release of TNFα from THP-1 cells, 10 µg/ml, antibody purified from hybridoma” value (“inhibition … from hybridoma” below) [2] was 74.8 % inhibition and the “inhibition of LPS-induced release of TNFα from THP-1 cells, recombinant antibody” value (“inhibition … recombinant antibody” for short) [2] was 78.5 % inhibition. The “inhibition of PMA-induced release of IL-6R from THP-1 cells, 1 µg/ml” value (“inhibition … from THP-1 cells, 1 µg/ml” below) [2] was 72.9 % inhibition, the “inhibition of PMA-induced release of IL-6R from U-937 cells, 1 µg/ml” value (“inhibition … of IL-6R from U-937 cells, 1 µg/ml” below) [2] was 76.1 % inhibition and the “inhibition of PMA-induced release of TGFα from PC3 cells, 1 µg/ml” value (“inhibition … from PC3 cells, 1 µg/ml” for short) [2] was 12.4 % inhibition. For the same binder, the “inhibition of PMA-induced release of TNFα from U-937 cells, 1 µg/ml” value (shortened to “inhibition … of TNFα from U-937 cells, 1 µg/ml”) [2] was 78.3 % inhibition.

B2: antibody 44 (antibody, V domains shown)
VH: B1 VH with A3T, S42P, G44E, N52H, A75T, A80I, A85T, D91E, A98S
VL: QIVLTQSPAVMSASPGEKVTMTCTASSSVYYMYWYQQTPGSSPRLLIYDTSNLASGVPVRFSGSGSGTSYSLTISRMEAEDAATYYCQQWNTYPLTFGAGTKLELK
notes: Mouse IgG, kappa light chain; also called clone #44; m44
In the case of B2, the binding result [1] is reported as “binds”, the “inhibition … from hybridoma” value [2] is reported as 32.2 % inhibition and the “inhibition … recombinant antibody” value [2] is reported as 73.2 % inhibition. For the same binder, the “inhibition of PMA-induced release of HB-EGF from THP-1 cells, 3 µg/ml” value [2] was 67.5 % inhibition, the “inhibition of PMA-induced release of HB-EGF from U-937 cells” value [2] was 100 % inhibition and the “inhibition … from THP-1 cells, 1 µg/ml” value [2] was 73 % inhibition. For the same binder, the “inhibition … of IL-6R from U-937 cells, 1 µg/ml” value [2] was 71.8 % inhibition, the “inhibition of PMA-induced release of IL-6R from U-937 cells, 3 µg/ml” value [2] was 82 % inhibition and the “inhibition … from PC3 cells, 1 µg/ml” value [2] was 14.1 % inhibition. For the same binder, the “inhibition … of TNFα from U-937 cells, 1 µg/ml” value [2] was 76.5 % inhibition and the “inhibition of PMA-induced release of TNFα from U-937 cells, 3 µg/ml” value [2] was 86.3 % inhibition.

B3: antibody 16 (antibody, V domains shown)
VH: QVTLKESGPGILQPSQTLSLTCSFSGFSLSTFALGVGWIRQPSGRGLEWLAHIWWDDDKYYNPALKSRLTISKDTSKNHVFLKIANVDTADTATYYCARITTYYYGMDYWGQGTSVTVSS
VL: DIVLSQSPATLSVTPGDSVSLFCRASQSIGNHLHWYQQESHASPRLLIKYASQSISGIPSRFSGSGSGTDFTLSINSVETEDFGMYFCQQSYNWPLTFGAGTKLELK
notes: Mouse IgG, kappa light chain; also called clone #16; m16
For B3, the “inhibition of LPS-induced release of TNFα from PBMCs of healthy donors, 1 µg/ml” value [2] was 81.3 % inhibition, the “inhibition … from hybridoma” value [2] was 65.4 % inhibition and the “inhibition … recombinant antibody” value [2] was 70.7 % inhibition. For the same binder, the “inhibition of LPS-induced release of TNFα from human macrophages of healthy donors” value [2] was 85.8 % inhibition, the “inhibition of PMA-induced release of HB-EGF from PBMCs of healthy donors, 1 µg/ml” value [2] was 71.6 % inhibition and the “inhibition of PMA-induced release of HB-EGF from THP-1 cells, 3 µg/ml” value [2] was 71.9 % inhibition. For the same binder, the “inhibition of PMA-induced release of HB-EGF from U-937 cells” value [2] was 99.6 % inhibition, the “inhibition of PMA-induced release of IL-6R from PBMCs of healthy donors, 1 µg/ml” value [2] was 84.3 % inhibition and the “inhibition … from THP-1 cells, 1 µg/ml” value [2] was 72.5 % inhibition. For the same binder, the “inhibition … of IL-6R from U-937 cells, 1 µg/ml” value [2] was 77.7 % inhibition, the “inhibition of PMA-induced release of IL-6R from U-937 cells, 3 µg/ml” value [2] was 77.4 % inhibition and the “inhibition … from PC3 cells, 1 µg/ml” value [2] was 13.9 % inhibition. For the same binder, the “inhibition … of TNFα from U-937 cells, 1 µg/ml” value [2] was 91.6 % inhibition and the “inhibition of PMA-induced release of TNFα from U-937 cells, 3 µg/ml” value [2] was 91.9 % inhibition.

B4: antibody 5 (antibody, V domains shown)
VH: B1 VH with A3T, S42P, N52H, D58E, P63S, D74A, A75T, G101S, D111N
VL: QVVLTQSPALMSASPGEKVTMTCSAGSSVSCMYWYQQKPGSSPRVLIYDTSNLASGVPARFTGSGSGTSYSLTISRMEAEDAASYYCQQWNSYPLTFGAGTKLELK
notes: Mouse IgG, kappa light chain; also called clone #5; purified antibody 5
B4 was tested, and the “inhibition … from hybridoma” value [2] was 69 % inhibition, the “inhibition … recombinant antibody” value [2] was 70.5 % inhibition and the “inhibition … from THP-1 cells, 1 µg/ml” value [2] was 64.1 % inhibition. The “inhibition … of IL-6R from U-937 cells, 1 µg/ml” value [2] was 67 % inhibition and the “inhibition … of TNFα from U-937 cells, 1 µg/ml” value [2] was 63.6 % inhibition.

B5: antibody 3 (antibody, V domains shown)
VH: QVTLKESGPGILQPSQTLSLTCSFSGFSLTTFAMGIGWVRQPSGKGLEWLAHIWWDGEKYNNPVLKSRLTISKDTSKNQVFLRIANVDTPDTATYYCARISSIYYIIDNWGQGTSVTVSS
VL: B3 VL with S5T, D17H, F22S, G30S, H32N, Q38K, E39K, A42E, A51V
notes: Mouse IgG, kappa light chain; also called clone #3; purified antibody 3
For B5, the “inhibition … from hybridoma” value [2] was 71.2 % inhibition, the “inhibition … recombinant antibody” value [2] was 59.9 % inhibition and the “inhibition … from THP-1 cells, 1 µg/ml” value [2] was 46.7 % inhibition. For the same binder, the “inhibition … of IL-6R from U-937 cells, 1 µg/ml” value [2] was 61.8 % inhibition and the “inhibition … of TNFα from U-937 cells, 1 µg/ml” value [2] was 65.9 % inhibition.

B6: antibody 48 (antibody, V domains shown)
VH: QVQLQQSGTELVRPGTSVKVSCKASGYAFTNYLIEWVKQRPGQGLEWIGVINPGSGFTKYNEKFKGKATLTADKSSSTVYMHLSSLTSEDSAVYFCARGLYRAMDYWGQGTSVTVSS
VL: DIQMTQSPASQSASLGESVTITCLASQTIATWLAWYQQKPGKSPQLLIYGATTLADGVPSRFSGGGSGTKFSFKISSLQAEDFVSYYCQQLYSTPYTFGGGTKLEIK
notes: Mouse IgG, kappa light chain; also called clone #48; purified antibody 48
B6: binds [1].

B7: antibody 50 (antibody, V domains shown)
VH: B6 VH with T9A, T16A, T30S, V79A, H82Q
VL: B6 VL with A30G, G50A, T52A, T53S, S85N, L91I
notes: Mouse IgG, kappa light chain; also called clone #50; purified antibody 50
B7: binds [1].

B8: antibody 47 (antibody, V domains shown)
VH: B6 VH with T9A, K59N, T69I, T71N, V79A, H82Q, S84I, G99D, Y101K, Y106H
VL: B6 VL with A30G, Y49H, G50A, T53S, G65S, L91I, T94S
notes: Mouse IgG, kappa light chain; also called clone #47
B8: binds [1].

B9: antibody 51 (antibody, V domains shown)
VH: QVQLQQSGAELVKPGASVKISCKASGYTFSNYWMNWVKQRPGKGLEWIGQIYPGDGDTKYNGKFKNKATLTADKSSSTAYMQFSSLTSEDSAVYFCARGDLVFVYWGLGTLVTVSA
VL: DVQITQSPSYLAVSPGETITINCRASKNIRKYLAWYQEKPGKTNKLLIYSGSTSQSGVPSRFSGSGSGTDFTLTISSLEPEDFAMYYCQQHNEYPYTFGGGTKLEIK
notes: Mouse IgG, kappa light chain; also called clone #51
B9: binds [1].
